Measured values taken from the nanobody polyreactivity screen of Harvey et al. (2022).

assay: yeast display, Sf9 membrane polyspecificity reagent, FACS + sequencing; frameworks hold sequencing errors
How it was run: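 Synthetic nanobody libraries on Saccharomyces cerevisiae BJ5465 were galactose-induced for 36–48 hours, stained 1 hour at 4 °C with 10% biotinylated, detergent-solubilized Sf9 membrane reagent and enriched on streptavidin microbeads. FACS then separated cells into low and high (top ~1%) gates by anti-HA (expression) and streptavidin (reagent binding) fluorescence. Genes were colony-PCR amplified, MiSeq 2 × 250 sequenced and CDR-length filtered. A clone's polyreactivity label is that of its gate of origin.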

Row | Sequence | polyreactivity (PSR sort gate)
1 | QVQLVESGGGLVQAGGSLRLSCAASGRIFGTNAMGWYRQAPGTEMELDADITSGGSTNYADSVKGRFTISRDNAKNTVYLQMNSLKPEDTAVYYCAADVIGDLRWYREEYWGQGTQVTVSS | low polyreactivity
2 | QVQLVESGGGLVQAGGSLRLSCAASGRIFGTNTMGWYRQAPGKERELVAGISSSGDSTYYADSVKGRFTISRDNAKNTVYLQMNSLKPEDTAVYYCAARKGEFWFPQGGYNYWGQGTQVTVSS | low polyreactivity
3 | QVQLVESGGGLVQAGGSLRLSCAASGRIFGTYAMGWYRQAPGKERELVAAITQSGGRTYYADSVKGRFTISRDNAKNTVYLQMNSLKPEDTAVYYCAADSGKRRYGYYYWGQGTQVTVSS | high polyreactivity
4 | QVQLVESGGGLVQAGGSLRLSCAASGRIFGTYAMGWYRQAPGKERELVARITRIGTRTYYADSVKGRFTISRDNAKNTVYLQMNSLKPEDTAVDYCAAGHYSYWVNTVKRYNTGYDYWGQGTQVTVSS | high polyreactivity
5 | QVQLVESGGGLVQAGGSLRLSCAASGRIFGTYAMGWYRQAPGKERELVATISYSSGRTYYADSVKGRFTISRDNAKNTVYFQMNSLKPEDTAVYYCARRRRSGSRQYYYWGQGTQVTVSS | high polyreactivity
6 | QVQLVESGGGLVQAGGSLRLSCAASGRIFGTYGMGWYRQAPGKERELVAAINWRGGSTYYADSVKGRFTISRDNAKNTVYLQMNSLKPEDTAVYYCNARLYRNRLGYWGQGTQVTVSS | high polyreactivity
7 | QVQLVESGGGLVQAGGSLRLSCAASGRIFGTYVMGWYRPAPGKERELVARITGGGSTNYADSVKGRFTISRDNAKNTVYLEMNSLKPEDTAVYYCARDYGPYLSPEKPAPMDYWGQGTQVTVSS | low polyreactivity
8 | QVQLVESGGGLVQAGGSLRLSCAASGRIFGVNAMGWYRQAPGKERELVAAIRYRDGSTYYADSVKGRFIISRDNAKNTVYLQMNSLKPEDTAVYYCNALHQRFYAQPGDYWGQGTQVTVSS | high polyreactivity
9 | QVQLVESGGGLVQAGGSLRLSCAASGRIFGVNAMGWYRQAPGKERELVAAISVSGDSTYYADSVKGRFTISRDNAKNTVYLQMNSLKPEDTAVYYCNAGYTFVPADLTDEYYWGQGTQVTVSS | low polyreactivity
10 | QVQLVESGGGLVQAGGSLRLSCAASGRIFGVNAMGWYRQAPGKERELVAVISSGGSTYYADSVKGRFTISRDNAKNTVYLQMNSLKPEDTAVYYCNAVVGRWFPYNLSDYWGQGTQVTVSS | low polyreactivity
11 | QVQLVESGGGLVQAGGSLRLSCAASGRIFGVNAMGWYRQEPGKERELVAAISAGGGNTYYADSVKGRFTISRDNAKNTVYLQMNSLKPEDTAVYYCNVHRSLRMDYWGQGTQVTVSS | high polyreactivity
12 | QVQLVESGGGLVQAGGSLRLSCAASGRIFGVYAMGCYRQATGKERELVATNTSGGSTSYADSVKGRFTISRDNAKNPVYLQMNSLKPEDTAVYYCNAPYSFFWQQMNYWGQGTQETVSS | low polyreactivity
13 | QVQLVESGGGLVQAGGSLRLSCAASGRIFGVYAMGWSRQAPGKERELGAGITDRGGRTYYADSVKGRFTISRDNAKNTVYLQMNSLKPEDTAVYYCNAGSLHRRYYYEGDYWGQGTQVTVSS | high polyreactivity
14 | QVQLVESGGGLVQAGGSLRLSCAASGRIFGVYAMGWYRQAPGKERELVAAISEGGGSTNYADSVKGRFTISRDNAKNTVYLQMNSLKPEDTAGYYCAATYRTGVRRYYSWGQGTQVTVSS | low polyreactivity
15 | QVQLVESGGGLVQAGGSLRLSCAASGRIFGVYAMGWYRQAPGKERELVAAISSTGGSTYYADSVKGRFTISRDNAKNTVYLQMNSLKPEDTAVYYCEYDYWGQGTQVTVSS | low polyreactivity
16 | QVQLVESGGGLVQAGGSLRLSCAASGRIFGVYAMGWYRQAPGKERELVAAIYSGSSTYYADSVKGRFTISRDNAKNTVYLHMNSLKPEDTAVYYCAAVSRDDNYQDYYYWGQGTQVTVSS | low polyreactivity

Row | Sequence | polyreactivity (PSR sort gate)
17 | QVQLVESGGGLVQAGGSLRLSCAASGRIFGVYTMGWYRQAPGKERELVAVISRRGGRTYYADSVKGRFTISRDNAKNTVYLQMNSLKPEDTAVYYCARDSTYSSYTSNDYWGQGTQVTVSS | high polyreactivity
18 | QVQLVESGGGLVQAGGSLRLSCAASGRIFGVYVMGWYRQAPGKEREFVAAITWSGGRTYYADSVKGRFTISRDNAKNTVYLQMNSLKPEDTAVYYCAARRRYEYDYWGQGTQVTVSS | high polyreactivity
19 | QVQLVESGGGLVQAGGSLRLSCAASGRIFGWYAMGWYRQAPGKERELVAAIRWSGGSTYADSVKGRFTISRDNAKNTVYLQMNSLKPEDTAVYYCAATYGSYRGVRYYWGQGTQVTVSS | high polyreactivity
20 | QVQLVESGGGLVQAGGSLRLSCAASGRIFGWYAMGWYRQAPGKERELVAAISRSGGSTYYADSVKGRFTISRDNAKNTVYLQMNSLKPEDTAVCYCAAAFSLGMYWGQGTQVTVSS | high polyreactivity
21 | QVQLVESGGGLVQAGGSLRLSCAASGRIFGWYAMGWYRQAPGKERELVAAISYSGGSTYADSVKGRFTISRDNAKYTVYLQMNSLKPEDTAVYYCAAYSSYYVHRFQHYDYWGQGTQVTVSS | high polyreactivity
22 | QVQLVESGGGLVQAGGSLRLSCAASGRIFGWYAMGWYRQAPGKERELVAAITSSVGRTYYADSVKGRFTISRDNAKNTVYLQMNSLKPEDTAVYYCAKDLYTYYYFEYDYWGQGTQVTVSS | low polyreactivity
23 | QVQLVESGGGLVQAGGSLRLSCAASGRIFGWYAMGWYRQAPGKERELVAGISSSSGSTNYADSVKGRFSISRDNAKNTVYLQMNSLKPEDTAVYYCAADGGGTYYSFYYWGQGTQVTVSS | low polyreactivity
24 | QVQLVESGGGLVQAGGSLRLSCAASGRIFGWYDMGWYRQAPGKERELVAAISYNGARTYYADSVKGRFTISRDNAKNTVYLQMNSLKPEDTAVYYCARRYYSQYDYWGQGTQVTVSS | high polyreactivity
25 | QVQLVESGGGLVQAGGSLRLSCAASGRIFGYAMGWYRQAPGKERELVAAITSSGGRTYYADSVKGRFTISRDNAKNTVYLQMNSLKPEDTAVYYCAAEYLAVSGYWYDYWGQGTQVTVSS | high polyreactivity
26 | QVQLVESGGGLVQAGGSLRLSCAASGRIFGYNAMGRYRQAPGKERELVAAISSGASTIYADSVKGRFTISRDNAKNTVYLQMNSLKPEDTAVYYCAKEKVISPYPYSYYKSDYWGQGTQVTVSS | high polyreactivity
27 | QVQLVESGGGLVQAGGSLRLSCAASGRIFGYNAMGWSRQAPGKERELVAAISYSGGSTYYADSVKGRFTISRDNAKNTVYLQMNSLKPEDTAVYYCAARHPYYYHYDYWGQGTQVTVSS | high polyreactivity
28 | QVQLVESGGGLVQAGGSLRLSCAASGRIFGYYAMGSYRQAPGKERELVAAITRGGSTNYADSVKGRFTISRDNAKNTVYLQMNSLKPEDTAVYYCNARRYRPRSASYDYWGQGTQVTVSS | high polyreactivity
29 | QVQLVESGGGLVQAGGSLRLSCAASGRIFGYYAMGWSRQAPGKEWELVAAISSGGRTYYADSVKGRFTISRDNAKNTVYLQMNSLKPEDTAVYYCAARSRVPPAGPRYDYWGLGTQVTVSS | high polyreactivity
30 | QVQLVESGGGLVQAGGSLRLSCAASGRIFGYYAMGWYRQAPGKERELVAAISDGGSTDYADSVKGRFTISRDNAKNTVYLQMNSLKPEDTAVYYCNADRLYLYNVEYDYWGQGTQVTVSS | low polyreactivity
31 | QVQLVESGGGLVQAGGSLRLSCAASGRIFGYYAMGWYRQAPGKERELVAAISSNGGSTYYADSVKGRFTISRDNAKNTVYLQMNSLKPEDTAVYYCKVYFYSRHYFYRGDYWGQGTQVTVSS | high polyreactivity
32 | QVQLVESGGGLVQAGGSLRLSCAASGRIFGYYAMGWYRQAPGKERELVAAISYTGGSTYYADSVKGRFTISRDNAKNTVYLQMNSLKPEDTAVYYCAAKHYKRLDYWGQGTQVTVSS | high polyreactivity
